The assay deals with T1, 细胞实际分泌的信号素3A (UniProt Q14563).
T1 sequence (looked up): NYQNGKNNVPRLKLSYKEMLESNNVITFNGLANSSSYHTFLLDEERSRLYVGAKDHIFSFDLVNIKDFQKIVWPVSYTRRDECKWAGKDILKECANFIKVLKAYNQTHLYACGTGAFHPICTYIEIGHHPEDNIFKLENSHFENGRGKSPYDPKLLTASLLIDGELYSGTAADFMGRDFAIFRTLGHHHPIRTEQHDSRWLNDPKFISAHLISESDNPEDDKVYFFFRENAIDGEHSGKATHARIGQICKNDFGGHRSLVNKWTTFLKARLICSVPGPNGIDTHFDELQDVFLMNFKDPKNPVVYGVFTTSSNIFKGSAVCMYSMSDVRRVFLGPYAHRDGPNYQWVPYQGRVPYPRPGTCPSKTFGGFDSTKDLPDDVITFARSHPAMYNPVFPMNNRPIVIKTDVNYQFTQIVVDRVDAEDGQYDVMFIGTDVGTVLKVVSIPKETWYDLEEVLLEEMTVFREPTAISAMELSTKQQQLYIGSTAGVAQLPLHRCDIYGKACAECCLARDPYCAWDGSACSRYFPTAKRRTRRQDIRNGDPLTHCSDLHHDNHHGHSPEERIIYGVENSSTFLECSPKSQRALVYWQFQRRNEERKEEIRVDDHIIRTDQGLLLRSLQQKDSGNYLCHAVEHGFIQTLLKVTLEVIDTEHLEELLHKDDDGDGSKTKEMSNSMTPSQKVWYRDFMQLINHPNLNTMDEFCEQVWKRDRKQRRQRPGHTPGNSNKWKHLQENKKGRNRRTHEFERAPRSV
Briefly: cell-based or functional assay.

This note sets out measurements from patent publication CN108290942A.

B1: 抗信号素3A scFv抗体片段 F11 (scFv, part only; not given: linker and tags, not shown: large carriers)
scFv, part: EVQLLESGGGLVQTGGSLRLSCAASGFTFSDYAMSWVRQAPGKGLEWVSWIYYDSGSKYYADSVKGRFTISRDNSKNTLYLQMNSLRAEDTAVYYCAKLNGDFDYWGQGTLVTVSSQSVLTQPPSASGTPGQRVTISCSGSSSNIGNNDVSWYQQLPGTAPKLLIYADSHRPSGVPDRFSGSKSGTSASLAISGLRSEDEADYYCGAWDSSLSGYVFGGGTKLTVL
Consider B1, for which the 细胞生长速度 (EZ-Cytox, 131细胞, 50μg/ml scFv, 4天) stood at 70%; the 细胞迁移 (transwell, 83细胞) was 28%; the 细胞迁移 (transwell, 131细胞) was determined as 7%; the 细胞迁移 (transwell, U87-MG细胞, 50μg/ml scFv) is 74%.

B2: 抗信号素3A scFv抗体片段 A08 (scFv, part only; not given: linker and tags, not shown: large carriers)
scFv, part: EVQLLESGGGLVQPGGSLRLSCAASGFTFSDYAMSWVRQAPGKGLEWVSGIYYDDSSQYYADSVKGRFTISRDNSKNTLYLQMNSLRAEDTAVYYCAKNLGRFDYWGQGTLVTVSSQSVLTQPPSASGTPGQRVTISCTGSSSNIGSNAVTWYQQLPGTAPKLLIYDDNHRPSGVPDRFSGSKSGTSASLAISGLRSEDEADYYCGAWDDSLSAYVFGGGTKLTVL
Turning to B2, the 细胞生长速度 (EZ-Cytox, 131细胞, 50μg/ml scFv, 4天) amounted to 70%; the 细胞迁移 (transwell, 83细胞) came to 21%; the 细胞迁移 (transwell, 131细胞) is 11%; the 细胞迁移 (transwell, U87-MG细胞, 50μg/ml scFv) worked out at 78%.

B3: 抗信号素3A scFv抗体片段 C10 (scFv, part only; not given: linker and tags, not shown: large carriers)
scFv, part: EVQLLESGGGLVQPGGSLRLSCAASGFTFSDYAMSWVRQAPGKGLEWVSGIYYDDSSQYYADSVEGRFTISRDNSKNTLYLQMNSLRAEDTAVYYCARYLGLFDYWGQGTLVTVSSQSVLTQPPSASGTPGQRVTISCSGSSSNIGNNSVNWYQQLPGTAPKLLIYSDSQRPSGVPDRFSGSKSGTSASLAISGLRSEDEADYYCGSWDYSLSAYVFGGGTKLTVL
Molecule B3 returned a 细胞生长速度 (EZ-Cytox, 131细胞, 50μg/ml scFv, 4天) of 70%; a 细胞迁移 (transwell, 83细胞) of 44%; a 细胞迁移 (transwell, 131细胞) of 19%; a 细胞迁移 (transwell, U87-MG细胞, 50μg/ml scFv) of 70%.
